The values that follow come from PMC4372654.

Like-named read-outs stand apart in the source and are kept apart here.

What all share (test): competition
The target of data set [1] is T1, Orf16 (KfrA homolog), His-tagged (Paenibacillus popilliae ATCC 14706T …, UniProt A0A0D6CB60 1-326).
T1 sequence: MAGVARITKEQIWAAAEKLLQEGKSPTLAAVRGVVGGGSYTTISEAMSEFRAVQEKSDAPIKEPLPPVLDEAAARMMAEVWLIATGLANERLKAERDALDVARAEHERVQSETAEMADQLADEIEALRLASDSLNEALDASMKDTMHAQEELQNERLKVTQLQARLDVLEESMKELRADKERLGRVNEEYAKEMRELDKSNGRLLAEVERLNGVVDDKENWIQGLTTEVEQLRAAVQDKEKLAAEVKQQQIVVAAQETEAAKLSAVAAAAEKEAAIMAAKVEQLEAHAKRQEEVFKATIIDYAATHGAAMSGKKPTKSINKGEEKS

The target in data set [2] is T1, Orf16 (KfrA homolog), His-tagged. This is another data set of the same source.
Data set [3] deals with T2, Orf8 (KfrA homolog), His-tagged (Paenibacillus popilliae ATCC 14706T …, UniProt A0A0D6CAG5 1-327).
T2 sequence: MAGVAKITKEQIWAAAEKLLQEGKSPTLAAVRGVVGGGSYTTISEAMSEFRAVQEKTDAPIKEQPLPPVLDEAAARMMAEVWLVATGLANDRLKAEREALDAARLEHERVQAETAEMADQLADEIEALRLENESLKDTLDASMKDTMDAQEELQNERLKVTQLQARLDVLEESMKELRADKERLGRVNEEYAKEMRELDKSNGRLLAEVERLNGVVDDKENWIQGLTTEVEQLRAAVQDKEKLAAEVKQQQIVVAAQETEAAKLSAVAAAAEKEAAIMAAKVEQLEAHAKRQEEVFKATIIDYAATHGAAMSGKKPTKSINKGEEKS

B1: IR1 (dsDNA)
DNA 1: CATGAAAAAATCATG
DNA 2: GTACCATGATTTTTTCATGAGCT
As to B1, in data set [1], the binding result is “no binding”.

B2: IR3 (dsDNA)
DNA 1: CATACTACATATTACATATTACATACTACATACTACAATATGGAGGGTG
DNA 2: GTACCACCCTCCATATTGTAGTATGTAGTATGTAATATGTAATATGTAGTATGAGCT
For the molecule B2, the binding result in data set [2] and in data set [3] was “binds” throughout.

B3: IR4 (dsDNA)
DNA 1: CATACTACATACAATATACAACATACTACAATATGGAGGGTG
DNA 2: GTACCACCCTCCATATTGTAGTATGTTGTATATTGTATGTAGTATGAGCT
Take B3: the binding result in data set [2] and in data set [3] was “binds” in each case.
